# Laboratory results published in publication PMC12251660, “The Structural Deciphering of the α3 Helix Within ZmHsfA2’S DNA-Binding Domain for the Recognition of Heat Shock Elements in Maize”.
# B1: ZmPAH1-HSE1-HSE2L16 (dsDNA)
# DNA 1: CAGCGTCACATGACGGGAATTTTCGTTCGAACGCATTCTG
# DNA 2: CAGAATGCGTTCGAACGAAAATTCCCGTCATGTGACGCTG
# B2: ZmPAH1-HSE1-HSE2R16 (dsDNA)
# DNA 1: TCTTCGAATTGCATAGGAAACTTCACGTCTTTTCAGCCCT
# DNA 2: AGGGCTGAAAAGACGTGAAGTTTCCTATGCAATTCGAAGA
# B3: ZmPAH1-HSE2 (dsDNA)
# DNA 1: CAGCGTCACATGACGGGAATTTTCACGTCTTTTCAGCCCT
# DNA 2: AGGGCTGAAAAGACGTGAAAATTCCCGTCATGTGACGCTG
# B4: ZmPAH1-HSE1-HSE2M2 (dsDNA)
# DNA 1: TCTTCGAATTGCATAGGAATTTTCGTTCGAACGCATTCTG
# DNA 2: CAGAATGCGTTCGAACGAAAATTCCTATGCAATTCGAAGA
# B5: ZmPAH1-HSE1 (dsDNA)
# DNA 1: TCTTCGAATTGCATAGGAAACTTCGTTCGAACGCATTCTG
# DNA 2: CAGAATGCGTTCGAACGAAGTTTCCTATGCAATTCGAAGA
# Target: ZmHsf17 (Zea mays, UniProt A0A5J6CYG6 1-373)
# Assay: EMSA; EMSA/Gel-Shift buffer (Beyotime GS009; composition, salt and pH not stated), 10 uL, 25 C 30 min; 6% native PAGE in 0.5x TBE at 4 C
# Details: protein: recombinant; tags: 6xHis (stated C-terminal; pET-30a); chain copies: 3; label: biotin; blunt
# Chain of ZmHsf17 (A0A5J6CYG6 entry or part of it): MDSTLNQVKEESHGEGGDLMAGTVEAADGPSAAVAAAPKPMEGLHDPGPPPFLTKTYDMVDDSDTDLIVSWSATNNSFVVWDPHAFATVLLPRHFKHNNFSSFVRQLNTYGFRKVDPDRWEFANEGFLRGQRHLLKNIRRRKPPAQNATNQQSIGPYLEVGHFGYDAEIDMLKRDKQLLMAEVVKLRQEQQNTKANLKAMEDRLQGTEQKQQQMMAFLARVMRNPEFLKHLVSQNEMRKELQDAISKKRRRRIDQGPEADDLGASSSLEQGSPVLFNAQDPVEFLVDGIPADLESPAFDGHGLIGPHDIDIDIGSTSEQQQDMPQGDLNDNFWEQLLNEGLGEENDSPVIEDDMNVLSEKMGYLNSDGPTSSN
row,Binder,binding result
1,B1,binds
2,B2,binds
3,B3,binds
4,B4,no binding
5,B5,no binding
